Measured values from patent publication US20100266530A1.

Molecular target: N-terminal GFP-tagged tail-less hFcRn (ssECTM: signal sequence-GFP-ectodomain-transmembrane domain) stably expressed on HEK293 cells (human) [GFP: P42212]
Test: flow cytometry on ssECTM cells at pH 7.5, 50 ug/ml hIgG-AF647, no competitor

MFI: 6 MFI
Substance: human IgG (hIgG) (antibody)
